Results published in patent publication US20140087995A1 (published 2014).
Numbered stars: 1 amine (or outer) side, 2 acyl side, 3 side chain; on linkers, the order of the positions; unused ones are H or OH. Bridge positions count the residues as written; N and C are the ends. Square brackets hold non-standard residues; d marks the D form. Side chains are listed from the residue outwards. Ends that are not written are not given here. * marks the point of attachment. C20 diacid = O=C(O)CCCCCCCCCCCCCCCCCCC(=O)*; γGlu = O=C(O)[C@H](CCC(=O)[*:2])N[*:1]; C14 diacid = O=C(O)CCCCCCCCCCCCC(=O)*

T1: human calcitonin receptor (human, UniProt P30988 25-474)
T1 construct: whole, on cells; Used as cell membranes; also called hCTR; hCT
T1 sequence (looked up): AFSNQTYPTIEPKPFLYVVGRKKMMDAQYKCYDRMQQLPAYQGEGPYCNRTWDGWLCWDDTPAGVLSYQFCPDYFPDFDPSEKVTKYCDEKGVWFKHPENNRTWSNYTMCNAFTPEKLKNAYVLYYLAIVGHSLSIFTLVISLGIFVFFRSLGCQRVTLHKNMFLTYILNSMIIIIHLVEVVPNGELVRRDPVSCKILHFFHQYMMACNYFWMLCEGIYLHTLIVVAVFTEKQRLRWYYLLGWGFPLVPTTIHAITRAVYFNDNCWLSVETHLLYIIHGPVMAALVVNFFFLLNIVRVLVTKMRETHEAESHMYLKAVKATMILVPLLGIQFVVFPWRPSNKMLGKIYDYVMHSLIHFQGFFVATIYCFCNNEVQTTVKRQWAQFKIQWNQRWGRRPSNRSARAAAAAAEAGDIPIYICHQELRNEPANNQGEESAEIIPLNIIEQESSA

T2: human amylin receptor (amylin 3(a) receptor: human calcitonin receptor with RAMP-3) (human, UniProt P30988 25-474; O60896 24-148)
T2 construct: whole, on cells; Used as cell membranes of the Amylin 3(a)/CRE-luc BHK cells; the species of RAMP-3 is only implied by the name human amylin receptor; also called hAmylin-R; hAmylinR
T2 sequence (looked up) 1: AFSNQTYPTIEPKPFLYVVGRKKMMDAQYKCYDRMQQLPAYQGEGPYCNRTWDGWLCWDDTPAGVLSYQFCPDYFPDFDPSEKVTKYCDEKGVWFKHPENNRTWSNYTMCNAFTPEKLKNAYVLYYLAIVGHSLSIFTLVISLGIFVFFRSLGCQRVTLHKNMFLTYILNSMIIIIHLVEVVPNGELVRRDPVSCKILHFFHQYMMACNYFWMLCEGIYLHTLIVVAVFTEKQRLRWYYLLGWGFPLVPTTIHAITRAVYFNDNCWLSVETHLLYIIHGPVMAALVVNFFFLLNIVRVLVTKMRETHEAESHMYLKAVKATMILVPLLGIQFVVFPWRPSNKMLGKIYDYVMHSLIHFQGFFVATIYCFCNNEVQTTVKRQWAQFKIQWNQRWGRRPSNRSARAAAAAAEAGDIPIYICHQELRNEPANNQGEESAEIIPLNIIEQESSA
T2 sequence (looked up) 2: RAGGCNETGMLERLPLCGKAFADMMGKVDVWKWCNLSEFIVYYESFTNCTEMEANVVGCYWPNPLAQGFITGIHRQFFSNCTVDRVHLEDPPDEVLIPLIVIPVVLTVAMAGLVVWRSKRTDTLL

T3: human calcitonin receptor (human, UniProt P30988 25-474)
T3 construct: whole, on cells; Membranes in a scintillation proximity assay (Assay VII); also called hCTR; hCT
T3 sequence (looked up): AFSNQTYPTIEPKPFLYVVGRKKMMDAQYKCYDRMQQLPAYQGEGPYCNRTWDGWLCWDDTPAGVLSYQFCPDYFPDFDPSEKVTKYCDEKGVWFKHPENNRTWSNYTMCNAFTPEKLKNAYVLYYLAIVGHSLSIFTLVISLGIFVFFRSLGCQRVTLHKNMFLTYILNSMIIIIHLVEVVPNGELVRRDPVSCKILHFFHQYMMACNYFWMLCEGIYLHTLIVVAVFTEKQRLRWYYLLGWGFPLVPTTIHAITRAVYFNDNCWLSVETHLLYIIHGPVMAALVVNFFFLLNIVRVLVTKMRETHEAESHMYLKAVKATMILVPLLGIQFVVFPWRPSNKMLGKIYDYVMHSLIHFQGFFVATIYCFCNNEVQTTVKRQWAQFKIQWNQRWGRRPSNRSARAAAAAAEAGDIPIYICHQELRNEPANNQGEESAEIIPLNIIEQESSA


Legend:
[1] = molecular target: T1, human calcitonin receptor; test: SPA competition on BHK cell membranes, 125I-calcitonin as radioligand (Assay VII)
Summary of the method: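 BHK hCTR membranes 35 ng/μL + SPA beads 0.05 mg/well; buffer 50 mM Hepes pH 7.4, 1 mM CaCl2, 5 mM MgCl₂, 0.1% OA, 0.02% Tween20. 120 min, 25° C., shaking. Scintillation count; IC50 by one-site binding competition.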

[2] = molecular target: T1, human calcitonin receptor; test: ratio of hCTR IC50 to hAmylin-R IC50 (reference: human amylin receptor)
Summary of the method: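 Membranes (35 ng/μL final) + SPA beads, 50 mM Hepes pH 7.4 buffer with 1 mM CaCl2, 5 mM MgCl₂, 0.1% OA, 0.02% Tween20; 120 min, 25° C, shaking; centrifuged, counted; IC₅₀ by one-site binding competition.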

[3] = molecular target: T2, human amylin receptor (amylin 3(a) …); test: SPA competition on BHK cell membranes, 125I-rat amylin as radioligand (Assay V)
Protocol: The binding assay was performed using scintillation proximity assay (SPA) beads (RPNQ0001) from PerkinElmer and cell membranes from the Amylin 3(a)/CRE-luc cells (as described in Assay (II)) were used. Membranes were prepared in the following way; the cells were rinsed with PBS and incubated with Versene for approximately 5 min before harvesting. The cells were flushed with PBS and the cell-suspension was centrifuged for 5 min at 1000 rpm. Cells were homogenized (ultrathurrax) in a buffer containing 20 mM Na-HEPES and 10 mM EDTA (pH 7.4) and centrifuged at 20.000 rpm for 15 min. The resulting pellet was resuspended, homogenized and centrifuged (20.000 rpm, 15 min) in a buffer containing 20 mM Na-HEPES and 0.1 mM EDTA (pH 7.4, buffer 2). The resulting pellet was resuspended in buffer 2 and protein concentration was measured (BCA protein Assay, Pierce). The homogenate was kept cold during the whole procedure. The membranes were kept at −80° C. until use. The assay was performed in a 384 well Optiplate (PerkinElmer) in a total volume of 40 ul. Membranes were mixed with SPA beads. Final concentration of membranes 35 ng/μL final and SPA beads was 0.05 mg/well. Test-compounds were dissolved in DMSO and further diluted in assay buffer (50 mM Hepes, pH 7.4, 1 mM CaCl2, 5 mM MgCl₂, 0.1% OA and 0.02% Tween20). […] The final mixture was incubated with shaking at 400 rpm for 120 min at 25° C. prior to centrifugation (1500 rpm, 10 min). Samples were analyzed on TopCounter™ (Packard). The IC₅₀ was calculated using (one site binding competition analysis) GraphPad Prism5 as a measure of receptor affinity.

[4] = molecular target: T3, human calcitonin receptor; test: SPA competition binding, displacement of 125I-calcitonin from membranes with human calcitonin receptor (Assay VII)
Protocol: Membranes were prepared in the following way; the cells were rinsed with PBS and incubated with Versene for approximately 5 min before harvesting. The cells were flushed with PBS and the cell-suspension was centrifuged for 5 min at 1000 rpm. Cells were homogenized (Ultrathurrax) in a buffer containing 20 mM Na-HEPES and 10 mM EDTA (pH 7.4) and centrifuged at 20.000 rpm for 15 min. The resulting pellet was resuspended, homogenized and centrifuged (20.000 rpm, 15 min) in a buffer containing 20 mM Na-HEPES and 0.1 mM EDTA (pH 7.4, buffer 2). The resulting pellet was resuspended in buffer 2 and protein concentration was measured (BCA protein Assay, Pierce). The homogenate was kept cold during the whole procedure. The membranes were kept at −80° C. until use. Assay was performed in a 384 well Optiplate (PerkinElmer) in a total volume of 40 ul. Membranes were mixed with SPA beads. Final concentration of membranes 35 ng/μL final and Final concentration of SPA beads was 0.05 mg/well. Test-compounds were dissolved in DMSO and further diluted in assay buffer (50 mM Hepes, pH 7.4, 1 mM CaCl2, 5 mM MgCl₂, 0.1% OA and 0.02% Tween20). […] The final mixture was incubated for 120 min with shaking at 400 rpm at 25° C. prior to centrifugation (1500 rpm, 10 min). Samples were analyzed on TopCounter™ (Packard). The […] was calculated using (one site binding competition analysis) GraphPad Prism5 as a measure of receptor affinity.

IC50 [1] [µM]	Ratio hCT/hAmylin binding [2]	IC50 [3] [µM]	IC50 [4] [µM]	Binder
0.0663	65.3	0.00101	–	{C20 diacid-γGlu}-GRCNTATCATQRLAHFLRHSSPNFGAIPSSTNVGHNTY-NH2 (disulfide 3-8; SMILES CC[C@H](C)[C@H](NC(=O)[C@H](C)NC(=O)CNC(=O)[C@H](Cc1ccccc1)NC(=O)[C@H](CC(N)=O)NC(=O)[C@@H]1CCCN1C(=O)[C@H](CO)NC(=O)[C@H](CO)NC(=O)[C@H](Cc1c[nH]cn1)NC(=O)[C@H](CCCNC(=N)N)NC(=O)[C@H](CC(C)C)NC(=O)[C@H](Cc1ccccc1)NC(=O)[C@H](Cc1c[nH]cn1)NC(=O)[C@H](C)NC(=O)[C@H](CC(C)C)NC(=O)[C@H](CCCNC(=N)N)NC(=O)[C@H](CCC(N)=O)NC(=O)[C@@H](NC(=O)[C@H](C)NC(=O)[C@@H]1CSSC[C@H](NC(=O)[C@H](CCCNC(=N)N)NC(=O)CNC(=O)CC[C@H](NC(=O)CCCCCCCCCCCCCCCCCCC(=O)O)C(=O)O)C(=O)N[C@@H](CC(N)=O)C(=O)N[C@@H]([C@@H](C)O)C(=O)N[C@@H](C)C(=O)N[C@@H]([C@@H](C)O)C(=O)N1)[C@@H](C)O)C(=O)N1CCC[C@H]1C(=O)N[C@@H](CO)C(=O)N[C@@H](CO)C(=O)N[C@H](C(=O)N[C@@H](CC(N)=O)C(=O)N[C@H](C(=O)NCC(=O)N[C@@H](Cc1c[nH]cn1)C(=O)N[C@@H](CC(N)=O)C(=O)N[C@H](C(=O)N[C@@H](Cc1ccc(O)cc1)C(N)=O)[C@@H](C)O)C(C)C)[C@@H](C)O, 38 residues; also called compound 100)
0.0243	23.5	0.00104	–	K([γGlu-C14 diacid])CNTATCATQRLANFLRHSSPNFGAIPSSTNVGHNTY-NH2 (disulfide 2-7; N-terminus assumed; SMILES CC[C@H](C)[C@H](NC(=O)[C@H](C)NC(=O)CNC(=O)[C@H](Cc1ccccc1)NC(=O)[C@H](CC(N)=O)NC(=O)[C@@H]1CCCN1C(=O)[C@H](CO)NC(=O)[C@H](CO)NC(=O)[C@H](Cc1c[nH]cn1)NC(=O)[C@H](CCCNC(=N)N)NC(=O)[C@H](CC(C)C)NC(=O)[C@H](Cc1ccccc1)NC(=O)[C@H](CC(N)=O)NC(=O)[C@H](C)NC(=O)[C@H](CC(C)C)NC(=O)[C@H](CCCNC(=N)N)NC(=O)[C@H](CCC(N)=O)NC(=O)[C@@H](NC(=O)[C@H](C)NC(=O)[C@@H]1CSSC[C@H](NC(=O)[C@@H](N)CCCCNC(=O)CC[C@H](NC(=O)CCCCCCCCCCCCC(=O)O)C(=O)O)C(=O)N[C@@H](CC(N)=O)C(=O)N[C@@H]([C@@H](C)O)C(=O)N[C@@H](C)C(=O)N[C@@H]([C@@H](C)O)C(=O)N1)[C@@H](C)O)C(=O)N1CCC[C@H]1C(=O)N[C@@H](CO)C(=O)N[C@@H](CO)C(=O)N[C@H](C(=O)N[C@@H](CC(N)=O)C(=O)N[C@H](C(=O)NCC(=O)N[C@@H](Cc1c[nH]cn1)C(=O)N[C@@H](CC(N)=O)C(=O)N[C@H](C(=O)N[C@@H](Cc1ccc(O)cc1)C(N)=O)[C@@H](C)O)C(C)C)[C@@H](C)O) [N^ε1-[(4S)-4-carboxy-4-(13-carboxytridecanoylamino)butanoyl]-[Arg17,Pro21,Pro27,His34]-h-amylin]
–	–	–	0.112	K([γGlu-γGlu-C20 diacid])CNTATCATQRLA[dD]FLRHSSPNFGAIPSSTNVGSRTY-NH2 (disulfide 2-7 (inferred))
0.133	159	0.000833	–	K([γGlu-γGlu-C20 diacid])CNTATCATQRLANFLRHSSPNFGAIPSSTNVGHNTY-NH2 (disulfide 2-7; N-terminus assumed; SMILES CC[C@H](C)[C@H](NC(=O)[C@H](C)NC(=O)CNC(=O)[C@H](Cc1ccccc1)NC(=O)[C@H](CC(N)=O)NC(=O)[C@@H]1CCCN1C(=O)[C@H](CO)NC(=O)[C@H](CO)NC(=O)[C@H](Cc1c[nH]cn1)NC(=O)[C@H](CCCNC(=N)N)NC(=O)[C@H](CC(C)C)NC(=O)[C@H](Cc1ccccc1)NC(=O)[C@H](CC(N)=O)NC(=O)[C@H](C)NC(=O)[C@H](CC(C)C)NC(=O)[C@H](CCCNC(=N)N)NC(=O)[C@H](CCC(N)=O)NC(=O)[C@@H](NC(=O)[C@H](C)NC(=O)[C@@H]1CSSC[C@H](NC(=O)[C@@H](N)CCCCNC(=O)CC[C@H](NC(=O)CC[C@H](NC(=O)CCCCCCCCCCCCCCCCCCC(=O)O)C(=O)O)C(=O)O)C(=O)N[C@@H](CC(N)=O)C(=O)N[C@@H]([C@@H](C)O)C(=O)N[C@@H](C)C(=O)N[C@@H]([C@@H](C)O)C(=O)N1)[C@@H](C)O)C(=O)N1CCC[C@H]1C(=O)N[C@@H](CO)C(=O)N[C@@H](CO)C(=O)N[C@H](C(=O)N[C@@H](CC(N)=O)C(=O)N[C@H](C(=O)NCC(=O)N[C@@H](Cc1c[nH]cn1)C(=O)N[C@@H](CC(N)=O)C(=O)N[C@H](C(=O)N[C@@H](Cc1ccc(O)cc1)C(N)=O)[C@@H](C)O)C(C)C)[C@@H](C)O, also called compound 86)
